Article PMC9482650, “Quantitative fragmentomics allow affinity mapping of interactomes” (Nature Communications, 2022)

T1: SNTA1, Q13424
T1 sequence (Q13424 82-180, limits assumed, looked up): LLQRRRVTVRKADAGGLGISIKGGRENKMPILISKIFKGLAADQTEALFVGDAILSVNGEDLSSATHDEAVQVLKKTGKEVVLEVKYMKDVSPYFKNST

T2: SIPA1L2, Q9P2F8
T2 sequence (Q9P2F8 945-1036, limits assumed, looked up): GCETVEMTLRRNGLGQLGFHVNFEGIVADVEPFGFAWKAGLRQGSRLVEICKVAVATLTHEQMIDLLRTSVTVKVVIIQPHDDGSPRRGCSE

T3: LNX2_3, Q8N448
T3 sequence (Q8N448 463-564, limits assumed, looked up): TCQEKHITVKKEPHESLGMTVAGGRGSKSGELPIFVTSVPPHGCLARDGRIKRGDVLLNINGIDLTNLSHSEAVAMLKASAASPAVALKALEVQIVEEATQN

T4: HTRA4, P83105
T4 sequence (P83105 378-476, limits assumed, looked up): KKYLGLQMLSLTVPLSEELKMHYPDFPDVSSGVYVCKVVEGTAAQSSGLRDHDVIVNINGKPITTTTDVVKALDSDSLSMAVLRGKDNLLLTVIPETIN

T5: PCLO, Q9Y6V0
T5 sequence (Q9Y6V0 4491-4600, limits assumed, looked up): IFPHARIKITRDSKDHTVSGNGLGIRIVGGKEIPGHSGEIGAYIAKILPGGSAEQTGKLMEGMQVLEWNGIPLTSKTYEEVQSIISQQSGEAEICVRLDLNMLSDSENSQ

T6: ARHGEF11, O15085
T6 sequence (O15085 42-136, limits assumed, looked up): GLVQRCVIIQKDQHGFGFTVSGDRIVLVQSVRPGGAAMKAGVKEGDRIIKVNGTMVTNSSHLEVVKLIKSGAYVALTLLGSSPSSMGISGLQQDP

T7: HTRA3, P83110
T7 sequence (P83110 354-453, limits assumed, looked up): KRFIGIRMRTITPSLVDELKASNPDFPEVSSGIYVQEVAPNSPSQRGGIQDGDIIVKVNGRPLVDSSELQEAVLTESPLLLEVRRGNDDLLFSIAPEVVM

T8: PARD3B_1, Q8TEW8
T8 sequence (Q8TEW8 196-299, limits assumed, looked up): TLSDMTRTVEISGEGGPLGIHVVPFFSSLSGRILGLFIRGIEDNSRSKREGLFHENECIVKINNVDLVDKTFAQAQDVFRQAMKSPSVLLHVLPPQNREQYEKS

T9: MPP7, Q5T2T1
T9 sequence (Q5T2T1 134-230, limits assumed, looked up): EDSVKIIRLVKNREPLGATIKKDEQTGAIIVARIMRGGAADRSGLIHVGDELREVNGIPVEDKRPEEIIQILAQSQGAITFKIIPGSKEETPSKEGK

T10: SNTG1, Q9NSN8
T10 sequence (Q9NSN8 52-150, limits assumed, looked up): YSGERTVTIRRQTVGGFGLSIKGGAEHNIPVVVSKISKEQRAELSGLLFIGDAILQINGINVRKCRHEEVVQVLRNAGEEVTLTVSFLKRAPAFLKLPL

T11: SYNJ2BP, P57105
T11 sequence (P57105 8-110, limits assumed, looked up): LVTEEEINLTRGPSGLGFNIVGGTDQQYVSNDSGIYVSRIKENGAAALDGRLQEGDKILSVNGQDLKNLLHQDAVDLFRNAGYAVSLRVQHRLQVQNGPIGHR

T12: SNTG2, Q9NY99
T12 sequence (Q9NY99 68-166, limits assumed, looked up): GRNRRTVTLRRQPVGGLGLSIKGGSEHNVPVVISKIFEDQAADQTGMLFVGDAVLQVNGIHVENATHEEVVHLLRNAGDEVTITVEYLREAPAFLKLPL


Columns and labels:
Assay in all cases: holdup assay
Parameters in all cases: key: below the threshold = too weak to quantify, mostly under pKd 3.1 to 4
Conditions in all cases: plain residues with an end cap or a label only (N-terminal biotin on a linker: ado-ado)
Inadl_3, Q8NI35 = target: Inadl_3, Q8NI35
Inadl_3, Q8NI35, sequence (Q8NI35 359-469): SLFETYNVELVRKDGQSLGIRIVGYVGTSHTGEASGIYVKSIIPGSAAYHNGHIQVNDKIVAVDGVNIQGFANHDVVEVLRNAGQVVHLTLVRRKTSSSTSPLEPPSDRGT

NHERF4_1, Q86UT5-2 = target: NHERF4_1, Q86UT5-2
NHERF4_1, Q86UT5-2, sequence (Q86UT5 other isoform, or with tags, fused parts or gaps): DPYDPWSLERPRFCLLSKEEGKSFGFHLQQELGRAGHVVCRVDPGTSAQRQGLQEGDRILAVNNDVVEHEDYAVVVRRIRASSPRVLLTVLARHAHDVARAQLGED

SNTA1, Q13424 = target: T1, SNTA1, Q13424
SIPA1L2, Q9P2F8 = target: T2, SIPA1L2, Q9P2F8
LNX2_3, Q8N448 = target: T3, LNX2_3, Q8N448
ARHGEF12, Q9NZN5-2 = target: ARHGEF12, Q9NZN5-2
ARHGEF12, Q9NZN5-2, sequence (Q9NZN5 other isoform, or with tags, fused parts or gaps): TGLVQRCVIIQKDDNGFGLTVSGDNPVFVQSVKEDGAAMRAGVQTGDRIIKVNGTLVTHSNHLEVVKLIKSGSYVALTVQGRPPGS

NHERF2_2, Q15599 = target: NHERF2_2, Q15599
NHERF2_2, Q15599, sequence (Q15599 142-238): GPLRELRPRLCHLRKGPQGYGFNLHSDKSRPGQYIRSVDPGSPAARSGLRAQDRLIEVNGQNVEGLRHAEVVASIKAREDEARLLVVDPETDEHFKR

IL16_1, Q14005 = target: IL16_1, Q14005
IL16_1, Q14005, sequence (Q14005 210-306): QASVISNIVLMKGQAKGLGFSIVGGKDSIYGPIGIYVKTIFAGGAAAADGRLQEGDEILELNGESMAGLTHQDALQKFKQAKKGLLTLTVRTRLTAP

NOS1, P29475 = target: NOS1, P29475
NOS1, P29475, sequence (P29475 9-101): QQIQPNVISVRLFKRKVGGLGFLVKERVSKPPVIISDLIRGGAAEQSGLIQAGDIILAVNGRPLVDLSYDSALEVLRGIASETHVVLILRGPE

HTRA4, P83105 = target: T4, HTRA4, P83105
MAGI2_5, Q86UL8 = target: MAGI2_5, Q86UL8
MAGI2_5, Q86UL8, sequence (Q86UL8 915-1017): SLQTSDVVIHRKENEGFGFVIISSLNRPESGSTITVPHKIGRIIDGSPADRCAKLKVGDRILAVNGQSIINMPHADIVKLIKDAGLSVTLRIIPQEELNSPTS

DLG2_2, Q15700 = target: DLG2_2, Q15700
DLG2_2, Q15700, sequence (Q15700 189-283): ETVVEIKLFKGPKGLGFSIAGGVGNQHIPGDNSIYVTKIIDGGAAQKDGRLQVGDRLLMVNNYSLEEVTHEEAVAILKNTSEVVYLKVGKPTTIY

PCLO, Q9Y6V0 = target: T5, PCLO, Q9Y6V0
ARHGEF11, O15085 = target: T6, ARHGEF11, O15085
PARD3_3, Q8TEW0 = target: PARD3_3, Q8TEW0
PARD3_3, Q8TEW0, sequence (Q8TEW0 582-685): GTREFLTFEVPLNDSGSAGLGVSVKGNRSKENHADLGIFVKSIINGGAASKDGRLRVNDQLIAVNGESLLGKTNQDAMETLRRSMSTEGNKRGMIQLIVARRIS

HTRA3, P83110 = target: T7, HTRA3, P83110
PARD3B_1, Q8TEW8 = target: T8, PARD3B_1, Q8TEW8
MAST1, Q9Y2H9 = target: MAST1, Q9Y2H9
MAST1, Q9Y2H9, sequence (Q9Y2H9 962-1065): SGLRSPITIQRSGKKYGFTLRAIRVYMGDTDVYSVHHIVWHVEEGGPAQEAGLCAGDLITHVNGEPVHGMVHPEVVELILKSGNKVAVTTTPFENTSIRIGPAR

SCRIB_2, Q14160 = target: SCRIB_2, Q14160
SCRIB_2, Q14160, sequence (Q14160 857-960): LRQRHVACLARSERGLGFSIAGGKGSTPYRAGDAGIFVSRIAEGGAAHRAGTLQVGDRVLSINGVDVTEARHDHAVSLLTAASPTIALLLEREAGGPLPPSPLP

Inadl_4, Q8NI35 = target: Inadl_4, Q8NI35
Inadl_4, Q8NI35, sequence (Q8NI35 547-651): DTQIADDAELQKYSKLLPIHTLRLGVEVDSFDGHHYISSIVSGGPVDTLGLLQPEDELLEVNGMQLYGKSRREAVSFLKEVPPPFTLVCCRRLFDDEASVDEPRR

MPP7, Q5T2T1 = target: T9, MPP7, Q5T2T1
Inadl_9, Q8NI35 = target: Inadl_9, Q8NI35
Inadl_9, Q8NI35, sequence (Q8NI35 1530-1615): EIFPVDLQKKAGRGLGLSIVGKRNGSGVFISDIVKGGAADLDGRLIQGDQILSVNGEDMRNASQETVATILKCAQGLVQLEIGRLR

SNTG1, Q9NSN8 = target: T10, SNTG1, Q9NSN8
SYNJ2BP, P57105 = target: T11, SYNJ2BP, P57105
SNTG2, Q9NY99 = target: T12, SNTG2, Q9NY99
TJP1_2, Q07157 = target: TJP1_2, Q07157
TJP1_2, Q07157, sequence (Q07157 181-274): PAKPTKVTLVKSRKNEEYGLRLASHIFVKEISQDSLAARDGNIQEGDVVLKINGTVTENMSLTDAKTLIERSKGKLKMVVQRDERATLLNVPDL

pKd (Inadl_3, Q8NI35) | pKd (NHERF4_1, Q86UT5-2) | pKd (SNTA1, Q13424) | pKd (SIPA1L2, Q9P2F8) | pKd (LNX2_3, Q8N448) | pKd (ARHGEF12, Q9NZN5-2) | pKd (NHERF2_2, Q15599) | pKd (IL16_1, Q14005) | pKd (NOS1, P29475) | pKd (HTRA4, P83105) | pKd (MAGI2_5, Q86UL8) | pKd (DLG2_2, Q15700) | pKd (PCLO, Q9Y6V0) | pKd (ARHGEF11, O15085) | pKd (PARD3_3, Q8TEW0) | pKd (HTRA3, P83110) | pKd (PARD3B_1, Q8TEW8) | pKd (MAST1, Q9Y2H9) | pKd (SCRIB_2, Q14160) | pKd (Inadl_4, Q8NI35) | also measured | Binder
4.4 | 3.67 | below the threshold | below the threshold | below the threshold | 3.5 | below the threshold | below the threshold | below the threshold | 4.14 | below the threshold | 3.72 | below the threshold | 4.21 | 4.66 | 5.13 | 4.42 | below the threshold | below the threshold | below the threshold | pKd (MPP7, Q5T2T1): 3.84; pKd (Inadl_9, Q8NI35): 3.68; pKd (SNTG1, Q9NSN8): 3.61; pKd (SYNJ2BP, P57105): below the threshold; pKd (SNTG2, Q9NY99): 3.49; pKd (TJP1_2, Q07157): below the threshold | VDSTVKVWTC [TRAF7, Q6Q0C0]
below the threshold | below the threshold | below the threshold | below the threshold | below the threshold | 3.66 | 3.58 | below the threshold | 3.51 | below the threshold | below the threshold | 3.65 | below the threshold | 3.92 | below the threshold | below the threshold | below the threshold | 3.9 | below the threshold | below the threshold | pKd (MPP7, Q5T2T1): below the threshold; pKd (Inadl_9, Q8NI35): below the threshold; pKd (SNTG1, Q9NSN8): below the threshold; pKd (SYNJ2BP, P57105): below the threshold; pKd (SNTG2, Q9NY99): below the threshold; pKd (TJP1_2, Q07157): below the threshold | TPPAAKKSRI [BAZ1A, Q9NRL2]
below the threshold | below the threshold | below the threshold | below the threshold | below the threshold | below the threshold | below the threshold | below the threshold | below the threshold | 3.85 | below the threshold | below the threshold | below the threshold | below the threshold | below the threshold | below the threshold | below the threshold | below the threshold | below the threshold | below the threshold | pKd (MPP7, Q5T2T1): below the threshold; pKd (Inadl_9, Q8NI35): below the threshold; pKd (SNTG1, Q9NSN8): below the threshold; pKd (SYNJ2BP, P57105): below the threshold; pKd (SNTG2, Q9NY99): below the threshold; pKd (TJP1_2, Q07157): below the threshold | LSEFKAMDSI [CTNNA1, P35221]
3.93 | 3.85 | below the threshold | below the threshold | below the threshold | 4.33 | 3.58 | below the threshold | 4.2 | below the threshold | 4.78 | 4.32 | below the threshold | 3.7 | 3.83 | below the threshold | 4.22 | below the threshold | below the threshold | below the threshold | pKd (MPP7, Q5T2T1): below the threshold; pKd (Inadl_9, Q8NI35): below the threshold; pKd (SNTG1, Q9NSN8): 3.47; pKd (SYNJ2BP, P57105): 4.12; pKd (SNTG2, Q9NY99): 3.63; pKd (TJP1_2, Q07157): below the threshold | QHKTQLQTLI [BPIFA2, Q96DR5]
